# Experimental data taken from US6632672.
# Molecular target: T1, phiC31 integrase (Streptomyces phage phiC31) (UniProt Q9T221)
# T1 sequence: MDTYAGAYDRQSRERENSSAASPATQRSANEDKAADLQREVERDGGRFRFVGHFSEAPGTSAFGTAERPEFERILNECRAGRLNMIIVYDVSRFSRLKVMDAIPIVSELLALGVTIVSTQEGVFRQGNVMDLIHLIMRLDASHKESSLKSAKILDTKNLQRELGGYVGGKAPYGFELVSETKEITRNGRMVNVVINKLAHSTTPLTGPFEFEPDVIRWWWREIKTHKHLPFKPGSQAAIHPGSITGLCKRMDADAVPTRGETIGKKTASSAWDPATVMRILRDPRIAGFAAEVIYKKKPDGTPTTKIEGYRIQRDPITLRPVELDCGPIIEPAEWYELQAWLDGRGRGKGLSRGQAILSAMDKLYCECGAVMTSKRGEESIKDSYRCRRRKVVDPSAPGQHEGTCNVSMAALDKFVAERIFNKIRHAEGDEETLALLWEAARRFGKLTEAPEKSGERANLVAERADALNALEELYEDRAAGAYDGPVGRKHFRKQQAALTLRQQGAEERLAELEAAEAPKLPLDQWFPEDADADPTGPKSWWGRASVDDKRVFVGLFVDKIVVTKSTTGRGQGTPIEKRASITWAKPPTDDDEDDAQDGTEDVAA
# Assay: cell_activity
substance,measurement,setting,value
attB full length (pBCPB+),activity,"bimolecular integration of attP donor into EBV plasmid in human 293 cells, corrected for transfection",7.5%
same,activity,"intramolecular integration with attP in E. coli, all colonies white",100%
attP full length (221 bp),activity,"intramolecular attB x attP recombination in human 293 cells, SE 2.32%, 16 experiments",50.6%
same,activity,"intramolecular integration with attB in E. coli, all colonies white",100%
attB34,binding signal,"E. coli, relative to full-length attB",100%
